Results from patent CN114028562A.

Biological target: 天然TSLP
Experiment: cell-based or functional assay

## Tezepelumab (antibody)
  IC50, inhibition of natural TSLP-induced STAT5 phosphorylation in SW756-STAT5-Luciferase reporter cells: 1.45 ng/mL
